# Numbering of substitutions follows the chain as printed. Names and notes keep the numbering of the source.
# B1: H4H8880P (antibody, V domains shown)
# VH: EVQLVESGGGVVQPGGSLRLSCAASGFTFSLYAMSWVRQAPGKGLEWVSAISGSAHGAYYADSVKGRFTISRDNSKNSLYLQMNSLRAEDTAIYYCAKDLVIAVAGTFDYWGQGTLVTVSS
# VL: DIQMTQSPSSLSASVGDRVTITCRASQIISTYLNWYQQKPGKAPKILIYTASSLKSGVPSRFSGSGSGTDFTLTISSLQPEDFATYYCQQTYSSPRFTFGPGTKVDIK
# notes: human IgG4 Fc (H4H prefix)
# B2: H1H8897P (antibody, V domains shown)
# VH: QVQLVESGGGLVKPGGSLRLSCAAAGFTFSDYYMSWIRQAPGQGLEWVSYISPSGSTTYYADSVQGRFTISRDNAKSSLYLQMNSLRAEDTAVYYCARTGIQLWSVYFDYWGQGTLVTVSS
# VL: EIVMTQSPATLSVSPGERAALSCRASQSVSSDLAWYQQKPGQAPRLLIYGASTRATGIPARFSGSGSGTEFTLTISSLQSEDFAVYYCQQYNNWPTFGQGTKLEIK
# notes: H1H Fc prefix (human Fc)
# B3: H1H8898P (antibody, V domains shown)
# VH: B2 VH with A25S, T28I, Q43K, E46D, V48I, T58I, Q65K, S77N, E89D
# VL: EIVMTQSPATLSVSPGERATLSCRASQSVGSNLAWYQQKPGQAPRLLIYGASTRANGIPARFSGSGSGTEFTLTISGLQSEDFAVYYCQQYNNWPTFGQGTKLEIK
# notes: H1H Fc prefix (human Fc)
# B4: H2aM8092N (antibody, V domains shown)
# VH: QVQLQESGPGLVKPSETLSLTCTVSGGSISSYYWSWIRQPPGKGLDWIGHIYYSGTTYYNPSLKSRVSISLDTSKNQFSLKLSSVTAADTAVYYCARHLRGYSSGREFDYWGQGTLVTVSS
# VL: DIQMTQSPSSLSASVGGRVSLTCRASQSIFSYLNWYQQKPGKAPKLLIYAASNLQSGVPSRFSGSGSGTDFTLTISSLQPEDFATYSCQQSYNIPYTFGQGTKLEIK
# notes: mouse IgG2 Fc (H2aM prefix); also called H2M8092N
# B5: H2aM8091N (antibody, V domains shown)
# VH: QVQLVQSGADMKKPGASVKVSCKASGYTFTTYGINWVRQAPGQGLEWMGWISAYSGITNYAQSFQGRVTMTTDTSTSTAYMELRSLRSDDTAVYYCARGGYNWATGDYFDYWGQGTLVTVSS
# VL: DIQMTQSPSTLSASIGDRVTITCRASQSISSWLAWYQQKPGKAPKFLIYKASSLASGVPSRFSGSGSGTEFTLTISSLQPDDFATYYCQQYDSYSPYTFGQGTKVEIK
# notes: mouse IgG2 Fc (H2aM prefix); also called H2M8091N
# B6: H1H8900P (antibody, V domains shown)
# VH: QVQLVESGGGVVQPGRSLRLSCVASGFTFSSYGMHWVRQAPGKGLEWVAVISFDGSNKYYADSVKGRFTISRDNSKNTLYLQMNSLRPADTAVYYCAKDRSNYYYFGMDVWGQGTTVTVSS
# VL: DIVMTQTPLSLPVTPGEPASISCRSSQSLLDSDDGNTYLDWYLQKPGQSPQLLIYTLSYRASGVPDRFSGSGSGTDFTLKISRVEAEDVGVYYCMQRIEFPLTFGGGTKVEIK
# notes: H1H Fc prefix (human Fc)
# Experiments:
# [1] = molecular target: mouse KLB and mouse FGFR1c co-expressed on HEK293/mKLB/mFGFR1c/SRE-Luc cells (mouse); test: cell-based or functional assay
# [2] = molecular target: T1, human KLB and human FGFR1c co-expressed on HEK293/hKLB/hFGFR1c/SRE-luc cells (human, UniProt Q86Z14 1-1044; P11362 22-822); test: FACS on stable HEK293 cells
# T1 construct: two receptors co-expressed on one cell line; also called KLB/FGFR1c coreceptor; FGF21R
# Method: (§1) To determine binding specificity of the monoclonal anti-KLB/FGFR1c antibodies, the antibodies were tested in a fluorescence-activated cell sorting (FACS) binding assay to cell lines expressing human FGFR1c, human KLB, and both human FGFR1c and human KLB. HEK293 cell lines were generated that stably express full-length human FGFR1c (hFGFR1c; SEQ ID NO:433) or full-length human KLB (hKLB; SEQ ID NO:434) or both human FGFR1c and human KLB, along with a luciferase reporter [SRE (serum response element)-luciferase, SA Bioscience, #CLS-010L]. The resulting cell lines, referred to as HEK293/hFGFR1c/SRE-luc, HEK293/hKLB/SRE-luc, and HEK293/hKLB/hFGFR1c/SRE-luc, respectively, were maintained in DMEM supplemented with 10% FBS, NEAA, penicillin/streptomycin, 1 μg/mL puromycin and […] hygromycin B, 1 μg/mL puromycin and 500 μg/mL G418, or all three antibiotics.
# (§2) For the FACS analysis, HEK293 parental, HEK293/hFGFR1c/SRE-luc, HEK293/hKLB/SRE-luc, and HEK293/hKLB/hFGFR1c/SRE-luc cells were dissociated and plated onto 96-well v-bottom plates at 5 x 10⁵ cells/well in PBS containing 1% FBS. […] Cells were filtered and subsequently analyzed on a Hypercyte Flow Cytometer (Intellicyt Corp.). Unstained and secondary antibody alone controls were also tested for binding to all cell lines. The results were analyzed using FlowJo version 9.52 software and geometric mean (Geom. Mean) of fluorescence for viable cells was determined. Geom. mean of fluorescence for each antibody was then normalized to Geom. mean of unstained cells to obtain relative binding of antibody (binding ratios) per each cell type.
# [3] = molecular target: T2, full-length human FGFR1c on HEK293/hFGFR1c/SRE-luc cells (human, UniProt P11362 22-822); test: FACS on stable HEK293 cells
# T2 construct: amino acids 1-733 of NP_075593
# Method: as §1, §2
# [4] = molecular target: T3, full-length human KLB on HEK293/hKLB/SRE-luc cells (human, UniProt Q86Z14 1-1044); test: FACS on stable HEK293 cells
# T3 construct: amino acids 1-1044 of NP_783864.1
# T3 sequence: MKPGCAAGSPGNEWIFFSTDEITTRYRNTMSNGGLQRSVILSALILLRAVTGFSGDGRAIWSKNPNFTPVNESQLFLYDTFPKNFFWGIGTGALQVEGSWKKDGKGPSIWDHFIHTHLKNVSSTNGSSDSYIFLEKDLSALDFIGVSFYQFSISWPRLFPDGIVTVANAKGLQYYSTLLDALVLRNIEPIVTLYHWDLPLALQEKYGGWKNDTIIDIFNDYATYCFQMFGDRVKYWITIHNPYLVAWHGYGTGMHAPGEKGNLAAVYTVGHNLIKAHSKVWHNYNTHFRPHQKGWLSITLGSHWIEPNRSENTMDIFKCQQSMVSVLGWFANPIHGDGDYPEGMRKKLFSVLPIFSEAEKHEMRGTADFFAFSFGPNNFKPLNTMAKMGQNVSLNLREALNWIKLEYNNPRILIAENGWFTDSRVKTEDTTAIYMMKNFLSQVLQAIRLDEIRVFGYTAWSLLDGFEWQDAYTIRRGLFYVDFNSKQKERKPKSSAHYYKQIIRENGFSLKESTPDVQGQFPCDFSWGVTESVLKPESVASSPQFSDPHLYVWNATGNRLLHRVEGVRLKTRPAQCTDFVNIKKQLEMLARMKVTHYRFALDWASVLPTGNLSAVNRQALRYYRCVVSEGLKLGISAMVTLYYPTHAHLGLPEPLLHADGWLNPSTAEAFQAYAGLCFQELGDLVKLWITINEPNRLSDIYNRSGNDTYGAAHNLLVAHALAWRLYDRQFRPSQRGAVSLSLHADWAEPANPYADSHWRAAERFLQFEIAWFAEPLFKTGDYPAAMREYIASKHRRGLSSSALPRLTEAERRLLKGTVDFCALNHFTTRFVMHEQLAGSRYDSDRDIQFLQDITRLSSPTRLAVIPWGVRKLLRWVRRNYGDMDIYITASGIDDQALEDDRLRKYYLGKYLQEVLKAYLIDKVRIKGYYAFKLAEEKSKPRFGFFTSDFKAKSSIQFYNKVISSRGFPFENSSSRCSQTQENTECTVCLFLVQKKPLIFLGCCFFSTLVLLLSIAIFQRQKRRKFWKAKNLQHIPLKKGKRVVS
# Method: as §1, §2
# [5] = molecular target: T1, human KLB and human FGFR1c co-expressed …; test: cell-based or functional assay
# [6] = molecular target: cell-surface human FGFR1c (amino acids 1-731 of NP_075594) with cell-surface human KLB on … (human, UniProt P11362 22-822); test: cell-based or functional assay
# [7] = molecular target: T1, human KLB and human FGFR1c co-expressed …; test: FACS on stable HEK293 cells, 965 nM
# Method: (§3) For the FACS analysis, HEK293 parental, HEK293/hFGFR1c, HEK293/hFGFR1c/hKLB, and HEK293/mFGFR1c/mKLB cells were dissociated and plated onto 96-well v-bottom plates at 0.5×10⁶ cells/well in 2% FBS/PBS. […] Control mAb2 was tested at a concentration of 965 nM. After primary protein incubation cells were washed and incubated with 3.75 μg/mL fluorescently conjugated secondary antibodies for 30 minutes at 4° C. Cells were filtered and analyzed on Accuri™ 6 Flow Cytometer. Unstained and secondary antibody alone controls were also tested for all cell lines. The results were analyzed using FlowJo version 9.52 software and geometric mean (Geom. Mean) of fluorescence for viable cells were determined. Geom. mean of fluorescence for each antibody was then normalized to Geom. mean of unstained cells to obtain relative binding of antibody (binding ratios) per each cell type.
# [8] = molecular target: T2, full-length human FGFR1c on …; test: FACS on stable HEK293 cells, 965 nM
# Method: as §3
# Chain of cell-surface human FGFR1c (amino acids 1-731 of NP_075594) with cell-surface human KLB on … (P11362 22-822): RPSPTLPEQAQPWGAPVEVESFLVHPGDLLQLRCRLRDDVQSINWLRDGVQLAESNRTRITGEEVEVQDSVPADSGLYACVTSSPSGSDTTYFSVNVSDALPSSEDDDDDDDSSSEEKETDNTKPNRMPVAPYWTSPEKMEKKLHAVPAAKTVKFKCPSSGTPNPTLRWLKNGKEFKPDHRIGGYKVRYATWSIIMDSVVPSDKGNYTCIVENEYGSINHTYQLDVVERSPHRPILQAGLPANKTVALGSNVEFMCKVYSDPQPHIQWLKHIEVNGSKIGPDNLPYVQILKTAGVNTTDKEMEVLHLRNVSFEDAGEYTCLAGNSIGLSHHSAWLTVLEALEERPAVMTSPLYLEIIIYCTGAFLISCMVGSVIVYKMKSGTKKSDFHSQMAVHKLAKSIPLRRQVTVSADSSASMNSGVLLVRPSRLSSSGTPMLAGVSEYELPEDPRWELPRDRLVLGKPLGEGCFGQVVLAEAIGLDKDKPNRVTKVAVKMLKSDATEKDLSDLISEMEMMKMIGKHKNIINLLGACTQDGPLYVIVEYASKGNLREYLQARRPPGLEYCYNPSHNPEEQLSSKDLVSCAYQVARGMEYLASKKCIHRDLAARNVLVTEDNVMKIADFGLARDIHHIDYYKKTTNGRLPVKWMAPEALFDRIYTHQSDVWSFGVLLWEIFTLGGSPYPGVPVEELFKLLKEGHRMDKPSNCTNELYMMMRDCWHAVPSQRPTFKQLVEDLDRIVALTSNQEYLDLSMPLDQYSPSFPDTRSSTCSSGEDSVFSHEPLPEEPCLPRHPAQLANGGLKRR
# T2 sequence (P11362 other isoform, or with tags, fused parts or gaps limits assumed): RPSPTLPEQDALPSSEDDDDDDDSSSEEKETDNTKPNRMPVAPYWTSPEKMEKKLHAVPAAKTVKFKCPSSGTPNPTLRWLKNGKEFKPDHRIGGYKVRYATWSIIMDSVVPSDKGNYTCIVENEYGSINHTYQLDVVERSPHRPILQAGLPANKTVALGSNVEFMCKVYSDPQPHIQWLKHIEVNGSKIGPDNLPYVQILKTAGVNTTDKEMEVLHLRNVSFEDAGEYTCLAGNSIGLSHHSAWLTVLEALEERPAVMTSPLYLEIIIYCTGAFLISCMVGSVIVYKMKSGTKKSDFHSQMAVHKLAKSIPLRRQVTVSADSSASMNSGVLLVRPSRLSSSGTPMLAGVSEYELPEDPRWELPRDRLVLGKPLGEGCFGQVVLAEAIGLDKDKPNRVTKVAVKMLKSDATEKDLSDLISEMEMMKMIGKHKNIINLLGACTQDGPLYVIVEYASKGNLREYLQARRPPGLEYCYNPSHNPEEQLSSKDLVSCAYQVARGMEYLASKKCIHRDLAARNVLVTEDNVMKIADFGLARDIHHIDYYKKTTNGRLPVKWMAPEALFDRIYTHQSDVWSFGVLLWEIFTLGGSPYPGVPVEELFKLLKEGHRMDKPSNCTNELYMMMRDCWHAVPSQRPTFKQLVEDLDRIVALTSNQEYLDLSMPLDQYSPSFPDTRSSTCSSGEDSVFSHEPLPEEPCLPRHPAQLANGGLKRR
Binder,Maximum Activation (%) without ligand [1],Maximum Inhibition (%) of 0.8 nM mFGF21 [1],binding ratio to unstained cells [2],binding ratio to unstained cells [3],binding ratio to unstained cells [4],"EC50, SRE-luc activation without ligand [5]","IC50, inhibition of 1 nM 6His-hFGF21 [5]",Maximum Activation (%) [5],Maximum Inhibition (%) [5],% Activation [6],"EC50, SRE-luc activation [6]",MFI Ratio to unstained cells [7],MFI Ratio to unstained cells [8]
B1,2%,16%,32 fold,2 fold,14 fold,–,–,–,–,–,–,–,–
B2,3%,50%,8 fold,1 fold,1 fold,–,–,–,–,–,–,–,–
B3,2%,29%,8 fold,1 fold,1 fold,–,–,–,–,–,–,–,–
B4,–,–,46 fold,1 fold,15 fold,0.29 nM,0.19 nM,0.6%,74%,0.8%,0.15 nM,–,–
B5,–,90%,37 fold,1 fold,8 fold,–,–,–,–,–,–,–,–
B6,–,–,6 fold,5 fold,1 fold,–,2.2 nM,–,36%,1.4%,> 10 nM,5 fold,5 fold

# — US20170174769A1 (Regeneron, published 2017)
